For assay [1], the target named is T1, recombinant Cdk5/p25 complex (UniProt Q00535 1-292; Q15078 99-307). As to the kind of experiment: BLI.
Assay [2] addresses T1, recombinant Cdk5/p25 complex. As to the kind of experiment: MST.
Assay [3] has as its target Cdk5 protein alone (recombinant) (UniProt Q00535 1-292). As to the kind of experiment: MST.

As for ARAFGIPVRCYS [Cdk5i peptide], the values for the Kd in assay [1], in assay [2] and in assay [3] were 220 nM, 170 nM and 15700 nM, respectively.

The values are drawn from PMC10120002 (Proceedings of the National Academy of Sciences of the …, 2023).
